Data taken from article PMC2901902 (Nature, 2010).
Where no end group is shown, it is not given here.

Tests used:
DPF3b PHD12 D263A = DPF3b PHD12 D263A (human, UniProt Q92784-1 261-372, D263A); assay: ITC
DPF3b PHD12 F264A = DPF3b PHD12 F264A (human, UniProt Q92784-1 261-372, F264A); assay: ITC
[1] = target: human DPF3b tandem PHD finger (residues 261–372) (human, UniProt Q92784-1 261-372); assay: NMR solution structure
[2] = target: T1, DPF3b PHD12 with Ala mutation of Asp335 (human, UniProt Q92784-1 261-372, Ala mutation of Asp335); assay: ITC
T1 sequence (looked up): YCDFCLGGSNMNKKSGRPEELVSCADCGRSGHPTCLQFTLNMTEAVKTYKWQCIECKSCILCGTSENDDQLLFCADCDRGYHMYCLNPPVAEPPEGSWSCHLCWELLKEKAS

[3] = target: DPF3b PHD12 with Ala mutation of Glu315 (human, UniProt Q92784-1 261-372, Ala mutation of Glu315); assay: ITC

ARTKQTARKSTGGKAPRK (peptide, UniProt P68431 2-19, looked up) [unmodified histone H3 peptide (residues 1–18)]
binding result (DPF3b PHD12 D263A): binds | binding result (DPF3b PHD12 F264A): binds

GLGKGGAK(Ac)RHRKVLR (peptide, UniProt P62805 10-24, looked up) [histone H4K16ac peptide (residues 9–23)]
binding result [1]: binds

ARTKQTARKSTGGK(Ac)APRK (peptide, UniProt P68431 2-19, looked up) [histone H3 peptide acetylated at lysine 14 (residues 1–18)]
binding result [2]: binds | binding result [3]: binds
